This is an account of results in patent US20240368295A1 (SUTRO BIOPHARMA, published 2024).

For experiment [1], the target named is T1, rat BCMA on 293T-ratBCMA cells (rat).
T1 construct: whole, on cells
Briefly: FACS, 293T-ratBCMA cells.

In experiment [2] the target is T2, BCMA on BCMA-positive NCI-H929, ARP-1 and U266B1 cells (human, UniProt Q02223 1-184).
T2 construct: they are human cell lines; also called B-cell maturation antigen; TNFRSF17
T2 sequence: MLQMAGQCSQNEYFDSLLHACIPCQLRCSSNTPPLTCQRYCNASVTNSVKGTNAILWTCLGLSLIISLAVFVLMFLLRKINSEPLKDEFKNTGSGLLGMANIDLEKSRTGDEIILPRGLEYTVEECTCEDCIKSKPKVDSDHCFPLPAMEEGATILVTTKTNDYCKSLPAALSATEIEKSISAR
As to the kind of experiment: FACS, NCI-H929 cells. The protocol: (§1) Variants for which sufficient protein was purified in secondary screening were tested in a fluorescence-activated cell sorting (FACS) cell-binding assay. […] 6-12 point dilutions of anti-BCMA variants starting from concentrations of about 100-200 nM antibody were dispensed into each well using a BioMekFX (Beckman Coulter). Cells were then incubated on ice for 1 hr, washed with FACS buffer and incubated for 1 hr on ice with […] FACS buffer containing […] Alexa647-conjugated Goat Anti-Human IgG dispensed using BioMekFX (Beckman Coulter). Cells were then washed 2× with FACS buffer and fixed for 10 minutes in […] PBS with 2% PFA prior to fluorescence detection. Samples were acquired using a Beckton Dickinson LSRII FACS. Geometric Mean Fluorescence Intensity of BCMA antibody binding was analyzed using FlowJo® software (Trec Star, Inc.).
(Flow cytometry measures light scatter and fluorescence of single cells or particles in a stream.)

In experiment [3] the target is T2, BCMA on BCMA-positive NCI-H929, ARP-1 …. Briefly: cell-based or functional assay.
The target of a further experiment is T3, human BCMA-Fc (human, UniProt Q02223 5-51, limits assumed).
T3 construct: Bought from R&D Systems; also called huBCMA-Fc; BCMA-Fc (R&D Systems)
T3 chain (looked up): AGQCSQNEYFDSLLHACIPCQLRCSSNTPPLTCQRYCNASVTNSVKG
Briefly: SPR (Biacore), captured antibody.

In experiment [4] the target is cynomolgus BCMA on 293T-cynoBCMA cells (cynomolgus, UniProt Q02223 1-184 (human entry)). Briefly: FACS, 293T-cynoBCMA cells. The protocol:
as §1

cynomolgus BCMA on 293T-cynoBCMA cells, sequence (Q02223 other isoform, or with tags, fused parts or gaps): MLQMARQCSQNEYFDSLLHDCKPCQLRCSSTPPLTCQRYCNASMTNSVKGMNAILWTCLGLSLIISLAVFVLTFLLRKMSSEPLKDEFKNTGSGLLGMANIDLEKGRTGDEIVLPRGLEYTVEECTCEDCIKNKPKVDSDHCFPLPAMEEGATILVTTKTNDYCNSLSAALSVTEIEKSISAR

B1: 10F4 (antibody, V domains shown)
VH: AVTLDESGGGLQTPGGALSLVCKASGFTFSGYNMGWVRQAPGKGLEYVAGITYGTGSYTAYGAAVKGRATISRDNGQSTLRLQLNNLRAEDTATYYCARGGGLNSYGCSGANIDAWGHGTEVIVSS
VL: ALTQPSSVSANLGGTVKITCSGGGNYFGSYYYGWYQQKAPGSAPVTVIYNNNNRPSDIPSRFSGSTSGSTSTLTISGVRAEDEAVYFCGGFDSSTDAIFGAGTTLTVL
notes: chicken HybriFree-derived antibody; also called Antibody 37
With B1, the “Bmax (MFI)” value in experiment [1] came to 410 MFI. The “Bmax (MFI)” value in experiment [2] is 18700 MFI. Further, in experiment [3], the “ARP-1, SC239-conjugated 2° antibody cell killing, EC50” value was 1 nM; the “ARP-1, SC239-conjugated 2° antibody cell killing, Span” value worked out at 87%; the “U266B1, SC239-conjugated 2° antibody cell killing, EC50” value is 0.36 nM; the “U266B1, SC239-conjugated 2° antibody cell killing, Span” value stood at 81%. Further, in the experiment with human BCMA-Fc, the binding result is “no binding (tested: antigen 1-100 nM)”. The “Bmax (MFI)” value in experiment [4] was found to be 12800 MFI.
